The values below come from US20180327495A1.

For this assay, the target named is Trop-2 (EGP-1) (human) (UniProt P09758). Nature of the assay: cell-based or functional assay.
Chain of Trop-2 (EGP-1) (human) (P09758 27-323): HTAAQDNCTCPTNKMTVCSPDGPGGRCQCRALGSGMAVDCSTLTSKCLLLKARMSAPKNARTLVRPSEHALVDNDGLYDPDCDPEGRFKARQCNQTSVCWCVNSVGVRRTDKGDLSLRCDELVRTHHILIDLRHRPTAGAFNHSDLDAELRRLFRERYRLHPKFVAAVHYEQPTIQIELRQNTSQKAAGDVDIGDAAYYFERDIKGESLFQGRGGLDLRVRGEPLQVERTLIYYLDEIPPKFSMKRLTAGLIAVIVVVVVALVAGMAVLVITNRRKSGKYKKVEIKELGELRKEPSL

For “hRS7 (anti-EGP-1 / anti-Trop-2 humanized MAb), unconjugated IgG (antibody)”, the ADCC, specific lysis (PBMC effectors, effector to target ratio 100:1, antibody at 33.3 nM) amounted to 8.5%.
